These results are taken from article PMC12059018 (Nature Communications, 2025).

The test addresses T1, p53-ZF43 bait (UniProt P04637).
T1 construct: also called p53 bait; source: BHK-21, transfected, in cells
In words: two-hybrid. The following applies: partners not purified.

T1 sequence (P04637 whole entry): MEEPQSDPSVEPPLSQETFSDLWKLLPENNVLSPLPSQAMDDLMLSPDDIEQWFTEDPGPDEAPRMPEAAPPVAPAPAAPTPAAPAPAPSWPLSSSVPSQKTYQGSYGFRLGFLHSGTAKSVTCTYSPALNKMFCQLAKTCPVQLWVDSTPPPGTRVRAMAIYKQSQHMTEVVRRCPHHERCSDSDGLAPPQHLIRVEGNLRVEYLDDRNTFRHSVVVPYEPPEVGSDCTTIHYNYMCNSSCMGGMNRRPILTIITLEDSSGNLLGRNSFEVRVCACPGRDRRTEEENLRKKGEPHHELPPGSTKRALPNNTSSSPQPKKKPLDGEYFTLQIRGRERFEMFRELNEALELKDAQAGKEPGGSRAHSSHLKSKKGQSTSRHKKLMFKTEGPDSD

B1: Nb139-VP64 (parental, NLS-containing fusion) (VHH)
VHH: QVQLQESGGGLVQAGGSLRLSCAASERTFSTYAMGWFRQAPGREREFLAQINWSGTTTYYAESVKDRTTISRDNAKNTVYLEMNNLNADDTGIYFCAAHPQRGWGSTLGWTYWGQGTQVTVSS
notes: also called Nb139[WT]; source: BHK-21, transfected, in cells
As for B1, the binding result is recorded as “binds”.
